Tests used:
Assay in all cases: BLI
v3B_Δ18 = target: v3B_Δ18
v3B_Δ15 = target: v3B_Δ15
v3B_Δ9 = target: v3B_Δ9

B1: MPE8 antigen-binding fragment (Fab) (Fab, V domains shown)
VH: EVQLVESGGGLVKPGGSLRLSCAASGFTFSSYSMNWVRQAPGKGLEWVSSISASSSYSDYADSAKGRFTISRDNAKTSLFLQMNSLRAEDTAIYFCARARATGYSSITPYFDIWGQGTLVTVSS
VL: QSVVTQTPSVSGAPGQRVTISCTGSSSNIGAGYDVHWYQQLPGTAPKLLIYDNNNRPSGVPDRFSASKSGTSASLAITGLQAEDEADYYCQSYDRNLSGVFGTGTKVTVL
For B1, the Kd (v3B_Δ18) was 690 nM, the Kd (v3B_Δ15) was 62 nM and the Kd (v3B_Δ9) was 87 nM.

— article PMC10516418 (2023)
